In the supplement of paper PMC10126150:
± gives the standard deviation of the averaged measurements.

System: ATP
Assay: switch fluorescence ratio, 500 uM ATP over buffer (Cy3 cluster intensity, sum of 5 cycles each) (fold (ratio)); higher = stronger signal-on switching upon ATP binding; sequences stand for … in TCGTCGGCAGCGTCAGATGTGTATAAGAGACAGTTTTTTTTTTTTTTTTTTTTTTTTT…TC
Details: aptamer strand: ATP DNA aptamer (quencher-CACCTGGGGGAGTATTGCGGAGGAAGG + anchor), 100 nM annealed; ATP concentration: 500 uM
Outline: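 For every switch-domain sequence, the fluorescence ratio is the mean of per-cluster values, each being summed target-cycle Cy3 intensity over summed buffer-cycle Cy3 intensity. Clusters outside 100-1000 RFU were excluded. On a modified Illumina MiSeq flow-cell, the Cy3-labelled switching-strand clusters were annealed to 100 nM quencher-labelled ATP aptamer, imaged in selection buffer and then after 15 min with 500 uM ATP at 22 °C. Five such cycles were run, with NaOH stripping and re-annealing between them.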
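Further: ATP exposure 15 min at 22 °C before imaging.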

Sequence	switch fluorescence ratio
TTTAATCTG	0.962 ± 0.021
TTTAATGCCG	0.954 ± 0.027
TTTAATGTAC	1.36 ± 0.32
TTTAATTATG	1.02 ± 0.034
TTTAATTGG	1 ± 0.048
TTTACAAGTA	1.031 ± 0.0049
TTTACACAGG	1.17 ± 0.035
TTTACAGGGT	1.03 ± 0.036
TTTACAGGTT	1.11 ± 0.1
TTTACATGCG	0.935 ± 0.031
TTTACATTGT	1.01 ± 0.03
TTTACCCCAA	1.15 ± 0.095
TTTACCGAAT	1.05 ± 0.017
TTTACCGGCG	1.02 ± 0.051
TTTACCTGGG	1.01 ± 0.032
TTTACGCGGG	1.04 ± 0.075
TTTACGGCCC	1.07 ± 0.12
TTTACGGGAA	1.05 ± 0.007
TTTACGGGTC	0.981 ± 0.026
TTTACGGGTT	0.988 ± 0.021
TTTACGTGAC	1.22 ± 0.16
TTTACGTTGC	1.34 ± 0.47
TTTACGTTTG	0.9919 ± 0.0017
TTTACTGGCA	1.05 ± 0.076
TTTACTTGTA	1.01 ± 0.023
TTTACTTTAT	1.06 ± 0.044

Sequence	switch fluorescence ratio
TTTAGAAACT	1.027 ± 0.0067
TTTAGAATAC	1.51 ± 0.42
TTTAGAGCGT	0.9933 ± 0.0013
TTTAGAGGCT	1 ± 0.012
TTTAGAGTGT	1.044 ± 0.0087
TTTAGATACG	1.05 ± 0.014
TTTAGATGGG	0.989 ± 0.029
TTTAGATTCT	0.992 ± 0.032
TTTAGCAACA	1.04 ± 0.047
TTTAGCGTGG	1.05 ± 0.05
TTTAGCT	1.08 ± 0.097
TTTAGCTGAA	0.962 ± 0.024
TTTAGGAAAG	1.05 ± 0.063
TTTAGGAAGG	1.017 ± 0.01
TTTAGGACGT	0.999 ± 0.059
TTTAGGAGTT	0.996 ± 0.019
TTTAGGCTGC	1.01 ± 0.021
TTTAGGGAGC	1.04 ± 0.029
TTTAGGGTAA	1 ± 0.03
TTTAGGGTCG	1.007 ± 0.0016
TTTAGGTAAT	1.016 ± 0.0074
TTTAGGTAT	1 ± 0.023
TTTAGGTCTA	0.978 ± 0.019
TTTAGGTTCA	0.98 ± 0.041
TTTAGGTTCT	1.01 ± 0.026
TTTAGGTTTG	1 ± 0.066

Sequence	switch fluorescence ratio
TTTAGTAATA	1.03 ± 0.021
TTTAGTACGC	1.05 ± 0.0076
TTTAGTAGCT	1 ± 0.032
TTTAGTAGGT	1.03 ± 0.023
TTTAGTAGTT	1.01 ± 0.017
TTTAGTCATG	0.977 ± 0.035
TTTAGTCGCG	0.967 ± 0.039
TTTAGTGGTT	1.02 ± 0.044
TTTAGTGTAT	0.991 ± 0.04
TTTAGTTCTG	0.9788 ± 0.0094
TTTAGTTGTG	0.967 ± 0.014
TTTATAAAGG	1.01 ± 0.034
TTTATAATCA	0.967 ± 0.011
TTTATACCAA	1.038 ± 0.0089
TTTATACGGC	1.03 ± 0.014
TTTATAGGGG	1.08 ± 0.14
TTTATATTAG	0.9889 ± 0.0075
TTTATCTAGG	1.02 ± 0.017
TTTATGAATG	0.9853 ± 0.0042
TTTATGACGT	1 ± 0.023
TTTATGAGCC	1.01 ± 0.062
TTTATGAGCG	0.973 ± 0.028
TTTATGAGGG	1.02 ± 0.047
TTTATGCCAT	0.989 ± 0.012
TTTATGGATC	1.01 ± 0.05
TTTATGGCCT	1.02 ± 0.052

Sequence	switch fluorescence ratio
TTTATGGCTG	0.987 ± 0.076
TTTATGGGG	0.965 ± 0.08
TTTATGTAAA	0.9849 ± 0.0081
TTTATGTCTC	0.992 ± 0.029
TTTATGTTCG	0.99 ± 0.02
TTTATGTTT	0.984 ± 0.019
TTTATTATTT	0.989 ± 0.024
TTTATTCCGG	1 ± 0.01
TTTATTCTGT	1 ± 0.022
TTTATTCTTA	0.9807 ± 0.0081
TTTATTGCTA	1.01 ± 0.034
TTTATTTGCC	1.05 ± 0.042
TTTATTTGG	1.09 ± 0.12
TTTATTTTTG	0.992 ± 0.029
TTTCAAAAGT	1.006 ± 0.006
TTTCAACATA	0.9987 ± 0.0035
TTTCACAAGG	0.9836 ± 0.0089
TTTCACCCCT	1.09 ± 0.067
TTTCACGAAT	0.993 ± 0.015
TTTCACGCGC	1.03 ± 0.016
TTTCAGGATG	0.963 ± 0.017
TTTCAGGGGA	1.19 ± 0.32
TTTCAGGTTT	0.983 ± 0.033
TTTCAGTCGG	1.006 ± 0.0037
TTTCAGTGCA	1.02 ± 0.029
TTTCATAAGT	0.999 ± 0.025

Sequence	switch fluorescence ratio
TTTCATACTC	1.29 ± 0.21
TTTCATTTTA	0.9881 ± 0.0064
TTTCATTTTG	1.03 ± 0.017
TTTCCCGACG	1.12 ± 0.11
TTTCCCGGGC	1.01 ± 0.056
TTTCCGAGGA	1.03 ± 0.069
TTTCCGCAGG	1.24 ± 0.17
TTTCCGCTTA	3.67 ± 1.7
TTTCCGGCGT	1.03 ± 0.023
TTTCCGGGAC	1.41 ± 0.066
TTTCCTCAG	1.3 ± 0.4
TTTCCTTGTG	1.36 ± 0.53
TTTCCTTTTG	1.01 ± 0.054
TTTCGACACG	0.989 ± 0.018
TTTCGAGCTT	1.01 ± 0.022
TTTCGAGTGC	0.97892 ± 0.00082
TTTCGAGTTA	1.03 ± 0.063
TTTCGAGTTG	0.9809 ± 0.0029
TTTCGATGGG	0.978 ± 0.015
TTTCGGAAAA	1.24 ± 0.41
TTTCGGACCT	1.3458 ± 0.00061
TTTCGGCACT	1.01 ± 0.05
TTTCGGCCAA	1.62 ± 0.76
TTTCGGCGGG	1 ± 0.013
TTTCGGGAGC	0.977 ± 0.049
TTTCGGGAGT	0.976 ± 0.016

Sequence	switch fluorescence ratio
TTTCGGGCCA	1.12 ± 0.039
TTTCGGGCTG	0.984 ± 0.015
TTTCGGGGAC	1.43 ± 0.62
TTTCGGGGCT	1 ± 0.052
TTTCGGGGGC	0.993 ± 0.028
TTTCGGTCAT	1.02 ± 0.029
TTTCGGTTCC	1.05 ± 0.051
TTTCGTAAAA	1.002 ± 0.0057
TTTCGTATTC	1 ± 0.015
TTTCGTCCAA	1.04 ± 0.026
TTTCGTGGGT	0.9863 ± 0.006
TTTCGTGGTT	0.937 ± 0.021
TTTCGTTTGC	0.998 ± 0.046
TTTCTAAGAA	1.01 ± 0.013
TTTCTAATGG	1.02 ± 0.026
TTTCTAGGGT	0.994 ± 0.017
TTTCTCAAAA	1.03 ± 0.024
TTTCTCGG	1.07 ± 0.093
TTTCTCTGTT	1.02 ± 0.011
TTTCTGGAAT	0.991 ± 0.0019
TTTCTGGCCG	0.907 ± 0.046
TTTCTGGGGC	1.08 ± 0.08
TTTCTGGGTT	1.01 ± 0.023
